From patent US20220298235A1 (AKESO BIOPHARMA, published 2022)

T1: Human IL12 (His Tag) (human, UniProt P29459 23-219; P29460 23-328)
T1 construct: Bought His-tagged heterodimer
T1 sequence (looked up) 1: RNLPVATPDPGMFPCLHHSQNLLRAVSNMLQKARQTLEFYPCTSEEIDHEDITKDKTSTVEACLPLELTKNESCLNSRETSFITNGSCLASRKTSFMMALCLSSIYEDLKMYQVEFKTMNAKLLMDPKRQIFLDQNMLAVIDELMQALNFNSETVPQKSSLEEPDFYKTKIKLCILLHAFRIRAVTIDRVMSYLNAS
T1 sequence (looked up) 2: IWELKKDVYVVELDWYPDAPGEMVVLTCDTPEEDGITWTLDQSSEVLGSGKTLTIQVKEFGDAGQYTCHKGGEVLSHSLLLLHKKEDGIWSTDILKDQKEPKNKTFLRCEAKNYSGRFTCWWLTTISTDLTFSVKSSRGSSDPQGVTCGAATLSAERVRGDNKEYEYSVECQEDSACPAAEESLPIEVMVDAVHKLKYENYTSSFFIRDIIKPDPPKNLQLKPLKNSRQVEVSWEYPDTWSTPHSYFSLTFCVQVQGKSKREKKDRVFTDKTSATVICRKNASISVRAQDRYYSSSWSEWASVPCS

T2: human IL-23 (IL-23-His-Biotin) (human, UniProt Q9NPF7 20-189; P29460 23-328, biotin label, site not stated)
T2 construct: Akesobio lot 20161209; His-tagged and biotinylated
T2 sequence (looked up) 1: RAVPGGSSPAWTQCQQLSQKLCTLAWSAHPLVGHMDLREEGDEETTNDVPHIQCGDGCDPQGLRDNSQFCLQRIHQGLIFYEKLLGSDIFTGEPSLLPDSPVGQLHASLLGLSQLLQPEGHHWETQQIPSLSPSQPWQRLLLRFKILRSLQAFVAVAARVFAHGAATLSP
T2 sequence (looked up) 2: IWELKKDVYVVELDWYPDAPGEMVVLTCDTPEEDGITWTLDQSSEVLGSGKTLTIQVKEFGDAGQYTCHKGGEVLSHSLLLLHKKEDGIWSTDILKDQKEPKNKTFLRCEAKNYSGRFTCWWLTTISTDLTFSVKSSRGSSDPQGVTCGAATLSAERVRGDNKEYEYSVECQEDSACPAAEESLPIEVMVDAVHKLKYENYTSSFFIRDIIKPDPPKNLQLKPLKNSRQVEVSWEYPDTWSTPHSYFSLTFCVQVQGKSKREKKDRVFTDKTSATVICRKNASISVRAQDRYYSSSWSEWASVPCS

T3: human p40-His (human, UniProt P29460 23-328)
T3 construct: Made by Akeso Biopharma; construct limits and tag not described; also called human IL-12/IL-23 p40 protein domain; human IL-12/IL-23 p40; not shown: His tag
T3 sequence (looked up): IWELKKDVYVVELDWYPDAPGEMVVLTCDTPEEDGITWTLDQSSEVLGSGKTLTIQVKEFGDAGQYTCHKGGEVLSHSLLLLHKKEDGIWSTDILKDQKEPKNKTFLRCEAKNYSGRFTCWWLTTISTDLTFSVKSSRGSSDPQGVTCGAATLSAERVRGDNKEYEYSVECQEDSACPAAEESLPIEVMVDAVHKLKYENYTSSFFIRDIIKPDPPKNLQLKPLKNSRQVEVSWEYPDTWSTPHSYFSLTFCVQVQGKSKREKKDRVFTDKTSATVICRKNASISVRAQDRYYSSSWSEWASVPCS


Tests used:
Human IL12 (His Tag) [1] = biological target: T1, Human IL12 (His Tag); experiment: FACS competition, IL-12-His 20 nM on 293T-IL-12Rβ1&IL-23R cells; antibody 0.04 µg/mL
Description: (§1) 200 μL of 1% PBSA was added into each sample, and the mixture was centrifuged at 700×g for 5 min to discard the supernatant. According to experiment design, correspondingly diluted antibody (highest final concentration of 30 μg/mL, 3-fold dilution, 8 concentrations in total) and human IL-12 (Sino Biological, Cat. No.: CT-050-H08H-20) (final concentration of 20 nM) were mixed at a ratio of 1:1, and a blank control was set. The mixture of antibody and human IL12 was incubated on ice for 30 min and then added to the cell precipitate at 100 μL/sample. The resulting mixture was well mixed and incubated on ice for 60 min 200 μL of 1% PBSA was added, and the mixture was centrifuged at 700×g for 5 min to discard the supernatant, and then washed twice. Alexa Fluor® 488 anti-His tag antibody (Biolegend, Cat. No.: 652509) was diluted at a ratio of 1:400 and added to each tube at 100 μL. The mixture was well mixed and incubated on ice for 40 min in the absence of light. 200 μL of 1% PBSA was added, and the mixture was centrifuged at 700×g for 5 min to discard the supernatant, and then washed twice. 1% PBSA was added at 200 μL/tube, and the cells were resuspended and transferred to a flow cytometry tube for testing.

[2] = biological target: T2, human IL-23 (IL-23-His-Biotin); experiment: FACS competition, IL-23-His-Biotin 2 µg/mL on 293T-IL-12Rβ1&IL-23R cells; antibody 3.33 µg/mL
Description: (§2) 200 μL of 1% PBSA was added into each sample, and the mixture was centrifuged at 700×g for 5 min to discard the supernatant. According to experiment design, correspondingly diluted antibody (highest final concentration of 30 μg/mL, 3-fold dilution, 8 concentrations in total) and human IL-23 (IL-23-His-Biotin, Akesobio, 20161209) (final concentration of 2 μg/mL) were mixed at a ratio of 1:1, and a blank control was set. The mixture of antibody and human IL23 was incubated on ice for 30 min and then added to the cell precipitate at 100 μL/sample. The resulting mixture was well mixed and incubated on ice for 60 min. 200 μL of 1% PBSA was added, and the mixture was centrifuged at 700×g for 5 min to discard the supernatant, and then washed twice. FITC Steptavidin (Biolegend, Cat. No.: 405202) was diluted at a ratio of 1:500 and added to each tube at 100 μL. The mixture was well mixed and incubated on ice for 40 min in the absence of light. 200 μL of 1% PBSA was added, and the mixture was centrifuged at 700×g for 5 min to discard the supernatant, and then washed twice. 1% PBSA was added at 200 μL/tube, and the cells were resuspended and transferred to a flow cytometry tube for testing.

[3] = biological target: T2, human IL-23 (IL-23-His-Biotin); experiment: FACS competition, IL-23-His-Biotin 2 µg/mL on 293T-IL-12Rβ1&IL-23R cells; antibody 0.12 µg/mL
Description: as §2

Human IL12 (His Tag) [4] = biological target: T1, Human IL12 (His Tag); experiment: FACS competition, IL-12-His 20 nM on 293T-IL-12Rβ1&IL-23R cells; antibody 10 µg/mL
Description: as §1

[5] = biological target: T2, human IL-23 (IL-23-His-Biotin); experiment: FACS competition, IL-23-His-Biotin 2 µg/mL on 293T-IL-12Rβ1&IL-23R cells; antibody 0.04 µg/mL
Description: as §2

human p40-His = biological target: T3, human p40-His; experiment: BLI (Fortebio), p40-His on HIS1K sensor, antibody 5-0.31 nM, 37 °C, 1:1 fit
Description: The sample dilution buffer for H5L9, H5L10, H5L11, H5L12, H5L14, H8L15, Ab123FR1 and ustekinumab was PBS (0.02% Tween-20, 0.1% BSA, pH 7.4). p40-His was immobilized on a HIS1K (manufacturer: Fortebio, Cat. No.: 18-5120) sensor at a concentration of 1 μg/mL for 40 s. The sensor was equilibrated in a buffer for 60 s, and the p40-His immobilized on the sensor bound to the antibody at a concentration of 5-0.31 nM (two-fold dilution) for 120 s, and then the protein dissociated in the buffer for 300 s. The sensor was refreshed with 10 mM glycine solution (pH=1.5). The detection temperature was 37° C., the detection frequency was 0.3 Hz, and the sample plate shaking rate was 500 rpm. The data were analyzed by 1:1 model fitting to obtain affinity constants.

Binder | MFI (Human IL12 (His Tag) [1]) | MFI [2] | MFI [3] | MFI (Human IL12 (His Tag) [4]) | MFI [5] | Kd (human p40-His) | S E (kon) (human p40-His) | S E(kdis) (human p40-His) | koff (human p40-His) | kon (human p40-His)
H5L10 (antibody, human IgG1, kappa, V domains shown, human IgG1 / kappa constant regions; also called humanized antibody H5L10) VH: EVQLVQSGAEVKKPGESLKISCQSSGYSFTTYWIGWVRQMPGQGLEWIGIMSPVDSDIRYNPMFRGQVTMSVDKSSSTAYLQWSSLKASDTAMYYCARRRPGQGYFDFWGQGTMVTVSS VL: EIVLTQSPATLSASPGERATISCRASQSVGSWLAWYQQKPGQAPRSLIYAASNLQSGIPARFSGSGSGTDFTLTISSLEPEDFAVYYCQQYNIYPYTFGQGTRLEIKR | 154 MFI | 15.7 MFI | 221 MFI | 34.1 MFI | 230 MFI | 0.121 nM | 364000 M⁻¹ s⁻¹ | 0.000222 s⁻¹ | 0.000435 s⁻¹ | 3.58e+06 M⁻¹ s⁻¹
H5L9 (antibody, human IgG1, kappa, V domains shown, human IgG1 (P01857) / kappa (P01834) constant regions; also called humanized antibody H5L9) VH: EVQLVQSGAEVKKPGESLKISCQSSGYSFTTYWIGWVRQMPGQGLEWIGIMSPVDSDIRYNPMFRGQVTMSVDKSSSTAYLQWSSLKASDTAMYYCARRRPGQGYFDFWGQGTMVTVSS VL: DIQMTQSPSSLSASVGDRVTITCKASQNVGSWLAWYQQKPGKAPKSLIYSASSRQSGVPSRFSGSGSGTDFTLTISSLQPEDFATYYCQQYDIYPFTFGQGTKLEIKR | 158 MFI | 153 MFI | 217 MFI | 134 MFI | 221 MFI | 0.849 nM | 850000 M⁻¹ s⁻¹ | 0.000307 s⁻¹ | 0.0092 s⁻¹ | 1.08e+07 M⁻¹ s⁻¹
H5L14 (antibody, human IgG1, kappa, V domains shown, human IgG1 / kappa constant regions; also called humanized antibody H5L14) VH: EVQLVQSGAEVKKPGESLKISCQSSGYSFTTYWIGWVRQMPGQGLEWIGIMSPVDSDIRYNPMFRGQVTMSVDKSSSTAYLQWSSLKASDTAMYYCARRRPGQGYFDFWGQGTMVTVSS VL: EIVLTQSPATLSASPGERATISCRASQSVSSWLAWYQQKPGQAPRSLIYAASNLQSGIPARFSGSGSGTDFTLTISSLEPEDFAVYYCQQYNIYPFTFGQGTRLEIKR | 155 MFI | 23.6 MFI | 203 MFI | 46.3 MFI | 216 MFI | 0.062 nM | 236000 M⁻¹ s⁻¹ | 0.000158 s⁻¹ | 0.000182 s⁻¹ | 2.94e+06 M⁻¹ s⁻¹
H5L12 (antibody, human IgG1, kappa, V domains shown, human IgG1 / kappa constant regions; also called humanized antibody H5L12) VH: EVQLVQSGAEVKKPGESLKISCQSSGYSFTTYWIGWVRQMPGQGLEWIGIMSPVDSDIRYNPMFRGQVTMSVDKSSSTAYLQWSSLKASDTAMYYCARRRPGQGYFDFWGQGTMVTVSS VL: EIVLTQSPATLSASPGERATISCRASQSVSSWLAWYQQKPGQAPRSLIYAASNRQSGIPARFSGSGSGTDFTLTISSLEPEDFAVYYCQQYNIYPYTFGQGTRLEIKR | 149 MFI | 15.8 MFI | 211 MFI | 32.4 MFI | 234 MFI | 0.0905 nM | 212000 M⁻¹ s⁻¹ | 0.000124 s⁻¹ | 0.000348 s⁻¹ | 3.84e+06 M⁻¹ s⁻¹

More lines, in order of falling Kd (human p40-His), values ahead:

MFI (Human IL12 (His Tag) [1]) | MFI [2] | MFI [3] | MFI (Human IL12 (His Tag) [4]) | MFI [5] | Kd (human p40-His) | S E (kon) (human p40-His) | S E(kdis) (human p40-His) | koff (human p40-His) | kon (human p40-His) | Binder
151 MFI | 20.2 MFI | 219 MFI | 33.9 MFI | 224 MFI | 0.136 nM | 232000 M⁻¹ s⁻¹ | 0.000144 s⁻¹ | 0.000428 s⁻¹ | 3.15e+06 M⁻¹ s⁻¹ | H5L11 (antibody, human IgG1, kappa, V domains shown, human IgG1 / kappa constant regions; also called humanized antibody H5L11) VH: EVQLVQSGAEVKKPGESLKISCQSSGYSFTTYWIGWVRQMPGQGLEWIGIMSPVDSDIRYNPMFRGQVTMSVDKSSSTAYLQWSSLKASDTAMYYCARRRPGQGYFDFWGQGTMVTVSS VL: EIVLTQSPATLSASPGERATISCRASQSVSSWLAWYQQKPGQAPRSLIYSASNLQSGIPARFSGSGSGTDFTLTISSLEPEDFAVYYCQQYNIYPYTFGQGTRLEIKR
150 MFI | 13.8 MFI | 211 MFI | 31 MFI | 216 MFI | 0.0864 nM | 251000 M⁻¹ s⁻¹ | 0.000181 s⁻¹ | 0.000172 s⁻¹ | 1.99e+06 M⁻¹ s⁻¹ | ustekinumab (antibody, V domains shown) VH: EVQLVQSGAEVKKPGESLKISCKGSGYSFTTYWLGWVRQMPGKGLDWIGIMSPVDSDIRYSPSFQGQVTMSVDKSITTAYLQWNSLKASDTAMYYCARRRPGQGYFDFWGQGTLVTVSS VL: DIQMTQSPSSLSASVGDRVTITCRASQGISSWLAWYQQKPEKAPKSLIYAASSLQSGVPSRFSGSGSGTDFTLTISSLQPEDFATYYCQQYNIYPYTFGQGTKLEIK
